Like-named read-outs stand apart in the source and are kept apart here.
Experiments:
786-O (human RCC) cells = experiment: In vitro cytotoxicity, MTT assay, in absence or presence of neutrophil elastase; format: cell-based; conditions: 72 h exposure
Experimental: (§1) 786-O (human RCC), HT-29 (human CRC), NCI-H292 (human NSCLC), NCI-H69 (human SCLC), MX-1 (human TNBC), and SUM149PT (human IBC) cells were acquired from ATCC and cultured according to the provider’s instructions.
(§2) The in vitro cytotoxicity of the SMDCs in comparison to the respective payloads was tested in a panel of cancer cell lines after a 72 h continuous exposure in presence or absence of 20 nM neutrophil elastase using MTT assays (ATCC). IC50 values were determined as the concentration of compound required for 50% inhibition of cell viability.

HT-29 (human CRC) cells = experiment: as above; format: cell-based; conditions: 72 h exposure
Experimental: as §1, §2

[1] = tested on: NCI-H292 (human NSCLC) cells; experiment: as above; format: cell-based; conditions: 72 h exposure
Experimental: as §1, §2

[2] = tested on: SUM149PT (human IBC) cells; experiment: as above; format: cell-based; conditions: 72 h exposure
Experimental: as §1, §2

[3] = Hydrolytic stability in PBS buffer at pH 7.4; format: physicochemical; conditions: PBS pH 7.4, 37 °C, 24 h
Experimental: For hydrolytic stability measurement, compounds 2, 3, 4, 5 and 6 (0.15 mg) were dissolved in acetonitrile/DMSO (4:1, 0.5 mL) and 1 mL of PBS buffer at pH 7.4 was then added. The sample solution was analyzed by HPLC to determine the amount of the test compound and the formation of degradation products over a period of 24 h at 37 °C.

Stability in rat plasma = format: in vitro ADME; conditions: 37 °C
Experimental: The SMDC compounds 2, 3, 4, 5 and 6 (1 mg) were dissolved in acetonitrile/DMSO (1:1, 0.5 mL). While vortexing, 20 µL of this solution was added to 1 mL rat plasma at 37 °C. The incubation was stopped at respective time intervals by adding acetonitrile/buffer pH 3 (80:20) and the test compounds and formation of degradation products were analyzed by LC and LC/MS.

[4] = Stability in human plasma; format: in vitro ADME; conditions: 37 °C
[5] = molecular target: T1, human neutrophil elastase (Homo sapiens, UniProt P08246); experiment: Human neutrophil elastase cleavability assay; format: biochemical; conditions: 5 µM SMDC, 20, 40, 60 nM NE, 1 h, 37°C
T1 sequence (P08246 30-267): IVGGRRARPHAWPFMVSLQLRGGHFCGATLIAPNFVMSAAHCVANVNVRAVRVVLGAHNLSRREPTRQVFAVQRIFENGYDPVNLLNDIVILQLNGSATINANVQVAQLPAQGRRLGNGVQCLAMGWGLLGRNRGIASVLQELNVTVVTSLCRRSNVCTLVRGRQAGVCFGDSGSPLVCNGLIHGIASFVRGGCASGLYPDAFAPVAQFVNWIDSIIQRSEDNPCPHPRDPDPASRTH
Experimental: For the NE cleavability assay, the SMDC test compound was added to buffer (150 mM NaCl, 10 mM CaCl2, 0.05% BSA) to a final concentration of 5 µM (0.5% DMSO). The reaction was started by adding different concentrations of human NE (0, 20, 40, 60 nM) to the reaction vials. After incubation for 1 h at 37°C, the enzymatic reaction was stopped by precipitation in 50% ACN. Subsequently, the samples were subjected to HPLC-MS analysis to determine the concentration of test compound and of its metabolite.

[6] = Intravenous pharmacokinetics in rat; format: in vivo; conditions: male Wistar rats, 0.5 mg/kg SMDC i.v., plasma
Experimental: Pharmacokinetic properties of SMDCs and their respective payloads were characterized in rats. Briefly, male Wistar rats (n = 3) were given a 0.5 mg/kg dose of SMDC formulated in plasma/DMSO (99:1) intravenously (i.v.) via tail vein. Blood was collected at pre-dose, 2, 5, 15, 30, 45, 60 min, 2, 4, 7, 24 h post-dose and then processed to plasma. Plasma was frozen at < −20°C until sample analysis. Plasma samples were analyzed for concentrations of SMDCs and their respective released payloads by LC-MS/MS.
(§3) Pharmacokinetics of SMDCs and their respective payloads from in vivo studies were determined using mean concentration-time profiles. All pharmacokinetic parameters were calculated by non-compartmental methods as previously described ([Perrier and Gibaldi, 1982]).

[7] = Plasma and tumor pharmacokinetics in NCI H69 tumor-bearing mice; format: in vivo; conditions: single dose Compound 3 10 mg/kg IV, analyte conjugate 3 or released payload 8
Experimental: In order to assess the selective concentration of payload to tumor tissue, the pharmacokinetic properties of the SMDC 3 and its payload 8, in plasma and tumor was also characterized in female NMRI nu/nu xenograft mice (Taconic M&B A/S) bearing NCI H69 human small cell lung cancer tumors. The mice were treated i. v. via the tail vein with a single dose of 3 at 10 mg/kg. Plasma and tumor samples were collected at 0.25, 1, 7, and 24 h after treatment (n = 2 mice/group at each time point) and were stored frozen at < −20°C until sample analysis. Concentrations of the SMDCs and their respective payloads were measured by LC-MS/MS.
as §3

NCI H69 SCLC xenograft = experiment: In vivo efficacy in NCI H69 SCLC xenograft model; parameters: species or system mice; conditions: 10 mg/kg i.v. weekly, 3 treatment cycles
Experimental: For the NCI H69 study, immunocompromised mice were inoculated subcutaneously with 1.3 × 10^6 NCI H69 cells in 50% Matrigel/50% Media on day 0. Treatment was started at a mean tumor area in the range of […] in the NCI H69 model (n = 8/group, compound 4 at 5 mg/kg i. v., QW, and compound 6 at 40 mg/kg i. v., QW). In an independent experiment in the same CDX xenograft model compound 3 was tested at 10 mg/kg i. v., QW.

Which IC50 (786-O (human RCC) cells; with 20 nM neutrophil elastase, read-out: IC50 786–0 + neutrophil elastase) does the source give for `CCCNC(=O)Nc1cccc(S(=O)(=O)Nc2cccc([C@@H](CC(=O)O)NC(=O)Nc3ccc(NC(=O)NCCOCCOCCOCCC(=O)N[C@@H](CC(=O)O)C(=O)N4CCC[C@H]4C(=O)N[C@H](C(=O)N=S(C)(=O)Cc4cc5cc(c4)OC(C)CCOc4cc(F)ccc4-c4nc(ncc4F)N5)C(C)C)cc3)c2)c1` (stereo partly shown) [Compound 3] here?
Its IC50 is 3.1 nM.

What about the IC50 (786-O (human RCC) cells; without neutrophil elastase, read-out: IC50 786–0) of the same molecule?
The IC50 was greater than 1000 nM.

And the IC50 (HT-29 (human CRC) cells; with 20 nM neutrophil elastase, read-out: IC50 HT29 + neutrophil elastase)?
The IC50 was 1.9 nM.

And the IC50 (HT-29 (human CRC) cells; without neutrophil elastase, read-out: IC50 HT29)?
Its IC50 is 990 nM.

What about the IC50 ([1]; with 20 nM neutrophil elastase, read-out: IC50 NCI-H292 + neutrophil elastase) of the same molecule?
The IC50 was 4.5 nM.

And the IC50 ([1]; without neutrophil elastase, read-out: IC50 NCI-H292)?
Its IC50 is 880 nM.

And the IC50 ([2]; with 20 nM neutrophil elastase, read-out: IC50 SUM149 PT + neutrophil elastase)?
The IC50 was 1.2 nM.

And the IC50 ([2]; without neutrophil elastase, read-out: IC50 SUM149PT)?
Its IC50 is 770 nM.

And the “Stability in buffer pH 7.4” value [3]?
Its value is “highly stable”.

What about the “Stability in rat plasma” value (Stability in rat plasma) of the same molecule?
Its value is “highly stable”.

What about the “Stability in human plasma” value [4] of the same molecule?
The value was “highly stable”.

And the “Cleavage by human NE” value [5]?
Its value is “essentially completely cleaved”.

And the Vss [6]?
Its Vss is “comparable to plasma volume”.

What about the “payload/parent AUC ratio” value ([6]; molar basis, 0.5 mg/kg) of the same molecule?
The value was 0.307.

What about the AUC(0-inf) ([6]; rat, in vivo, iv) of the same molecule?
The AUC(0-inf) was 0.801 ± 0.126 µM·h.

What about the half-life ([6]; rat, in vivo, iv) of the same molecule?
Its half-life is 14.4 ± 3 min.

And the clearance ([6]; rat, in vivo, iv, read-out: CLp)?
Its clearance is 6.6 ± 0.95 mL/min/kg.

And the Vd ([6]; rat, in vivo, iv, read-out: Vss)?
The Vd was 0.0366 ± 0.0053 L/kg.

And the AUC(0-t) ([7]; mouse, in vivo, plasma)?
Its AUC(0-t) is 43 µM·h.

What about the Cmax ([7]; mouse, in vivo, plasma) of the same molecule?
Its Cmax is 49 µM.

What about the “tumor/plasma AUC ratio” value [7] of the same molecule?
Its value is 0.126.

What about the “Tumor growth NCI H69” value (NCI H69 SCLC xenograft) of the same molecule?
The value was “No significant inhibition”.

From paper PMC10943695, “Neutrophil elastase as a versatile cleavage enzyme for activation of αvβ3 integrin-targeted small molecule drug conjugates with different payload classes in the tumor microenvironment” (Frontiers in Pharmacology, 2024)
